Experimental data published in patent publication US20230304012A1.

How the values were obtained:
[1] = biological target: full length MuSK (wild type mouse, on primary myotubes) (mouse) (UniProt Q61006); test: cell-based or functional assay
[2] = biological target: ΔIg3-MuSK (mouse, on primary myotubes from ΔIg3-MuSK mice) (mouse) (UniProt Q61006); test: cell-based or functional assay

A Wnt11 transcription (qRT-PCR), fold increase after 25 ng/mL BMP4 for 2 hours in primary myotubes [1] of 5.8 fold and a Wnt11 transcription (qRT-PCR), fold increase after 25 ng/mL BMP4 for 2 hours in primary myotubes [2] of 2.6 fold were found for BMP4 (ligand) in this work.
